The values that follow come from patent publication US20050106141A1 (PROCTER AND GAMBLE, published 2005).

The assay has as its target T1, LexA BD-HRt (mouse, UniProt P0A7C2 1-202; Q61645 490-1182).
T1 construct: domain: Lex A DNA BD;range 490-1182; also called BD-HRt(mouse); Lex A DNA BD-HRt
T1 sequence (looked up): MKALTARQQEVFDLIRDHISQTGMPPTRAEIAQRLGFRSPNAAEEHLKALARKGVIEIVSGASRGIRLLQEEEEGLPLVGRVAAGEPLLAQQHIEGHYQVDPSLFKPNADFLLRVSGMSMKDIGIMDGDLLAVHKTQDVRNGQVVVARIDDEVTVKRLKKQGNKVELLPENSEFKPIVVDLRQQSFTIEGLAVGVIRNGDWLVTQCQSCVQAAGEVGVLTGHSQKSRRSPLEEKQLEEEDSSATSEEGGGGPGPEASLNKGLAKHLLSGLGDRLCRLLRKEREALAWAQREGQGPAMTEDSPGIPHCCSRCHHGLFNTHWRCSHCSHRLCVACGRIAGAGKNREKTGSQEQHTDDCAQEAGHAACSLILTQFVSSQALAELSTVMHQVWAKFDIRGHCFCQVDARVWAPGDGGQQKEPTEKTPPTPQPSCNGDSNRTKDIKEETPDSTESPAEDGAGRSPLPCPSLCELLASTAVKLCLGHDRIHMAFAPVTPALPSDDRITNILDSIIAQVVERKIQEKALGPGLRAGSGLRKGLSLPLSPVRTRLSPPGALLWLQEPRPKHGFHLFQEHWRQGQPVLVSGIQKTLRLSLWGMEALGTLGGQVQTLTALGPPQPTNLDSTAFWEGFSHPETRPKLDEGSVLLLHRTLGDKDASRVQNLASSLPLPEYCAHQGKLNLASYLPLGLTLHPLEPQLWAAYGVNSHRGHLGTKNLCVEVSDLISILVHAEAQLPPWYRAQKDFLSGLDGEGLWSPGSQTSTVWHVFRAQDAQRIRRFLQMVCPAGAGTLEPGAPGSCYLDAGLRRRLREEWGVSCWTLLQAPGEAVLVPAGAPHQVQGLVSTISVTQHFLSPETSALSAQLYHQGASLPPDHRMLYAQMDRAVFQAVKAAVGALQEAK
Briefly: yeast two-hybrid library screen; number of positive clones with this identity.

From the text: Clontech Human Keratinocyte GAL4 cDNA library (complexity 2.5×10⁶) in pACT2 vector was used used to screen for HRt interacting proteins. A Leu⁻, Trp⁻ yeast strain with HIS3 and LACZ reporters for yeasts two hybrid interaction (strain L41) was first transformed with LexA BD-HRt palsmid) for Trp⁺ phenotype. The resulting L41/LexA BD-HR transformant was screened to ensure expression of LexA BD-HRt protein and also for lack of auto activation of the reporter genes HIS3 and LACZ. This strain was transformed with Keratinocyte AD-cDNA library and plated on Trp⁻Leu⁻His⁻ plate to select for clones with positive interaction. Colonies that appeared on selsctive plates were subsequently tested for LACZ expression on X-GAL plates. […] AD-plasmid was rescued from the 90 clones and retested for HRt bait dependance. […] The positive clones are expected to contain an AD-IP (interacting partner) that interacts with BD-HRt.

B1: Homo Sapiens Ubiquitous Receptor (receptor, UniProt P55055 1-460, looked up, not shown: large carriers)
chain: MSSPTTSSLDTPLPGNGPPQPGAPSSSPTVKEEGPEPWPGGPDPDVPGTDEASSACSTDWVIPDPEEEPERKRKKGPAPKMLGHELCRVCGDKASGFHYNVLSCEGCKGFFRRSVVRGGARRYACRGGGTCQMDAFMRRKCQQCRLRKCKEAGMREQCVLSEEQIRKKKIRKQQQESQSQSQSPVGPQGSSSSASGPGASPGGSEAGSQGSGEGEGVQLTAAQELMIQQLVAAQLQCNKRSFSDQPKVTPWPLGADPQSRDARQQRFAHFTELAIISVQEIVDFAKQVPGFLQLGREDQIALLKASTIEIMLLETARRYNHETECITFLKDFTYSKDDFHRAGLQVEFINPIFEFSRAMRRLGLDDAEYALLIAINIFSADRPNVQEPGRVEALQQPYVEALLSYTRIKRPQDQLRFPRMLMKLVSLRTLSSVHSEQVFALRLQDKKLPPLLSEIWDVHE
notes: Prey clone; also called Oxysterols Receptor LXR-Beta; LXR
B1 returned a Hits of 14.

B2: Homo Sapiens DEAD (Asp-Glu-Ala-Asp) box polypeptide 3 (enzyme, UniProt O00571 1-662, looked up, not shown: large carriers)
chain: MSHVAVENALGLDQQFAGLDLNSSDNQSGGSTASKGRYIPPHLRNREATKGFYDKDSSGWSSSKDKDAYSSFGSRSDSRGKSSFFSDRGSGSRGRFDDRGRSDYDGIGSRGDRSGFGKFERGGNSRWCDKSDEDDWSKPLPPSERLEQELFSGGNTGINFEKYDDIPVEATGNNCPPHIESFSDVEMGEIIMGNIELTRYTRPTPVQKHAIPIIKEKRDLMACAQTGSGKTAAFLLPILSQIYSDGPGEALRAMKENGRYGRRKQYPISLVLAPTRELAVQIYEEARKFSYRSRVRPCVVYGGADIGQQIRDLERGCHLLVATPGRLVDMMERGKIGLDFCKYLVLDEADRMLDMGFEPQIRRIVEQDTMPPKGVRHTMMFSATFPKEIQMLARDFLDEYIFLAVGRVGSTSENITQKVVWVEESDKRSFLLDLLNATGKDSLTLVFVETKKGADSLEDFLYHEGYACTSIHGDRSQRDREEALHQFRSGKSPILVATAVAARGLDISNVKHVINFDLPSDIEEYVHRIGRTGRVGNLGLATSFFNERNINITKDLLDLLVEAKQEVPSWLENMAYEHHYKGSSRGRSKSSRFSGGFGARDYRQSSGASSSSFSSSRASSSRSGGGGHGSSRGFGGGGYGGFYNSDGYGGNYNSQGVDWWGN
notes: Prey clone; extent of the clone unknown; also called Homo Sapiens DEAD/H (Asp-Glu-Ala-Asp/His) Box Polypeptide 3; AD-IP
For the molecule B2, the Hits was determined as 2.

B3: Homo Sapiens Protein Inhibitor of Activated STAT-1 (PIAS1) (other, UniProt O75925 1-651, looked up, not shown: large carriers)
chain: MADSAELKQMVMSLRVSELQVLLGYAGRNKHGRKHELLTKALHLLKAGCSPAVQMKIKELYRRRFPQKIMTPADLSIPNVHSSPMPATLSPSTIPQLTYDGHPASSPLLPVSLLGPKHELELPHLTSALHPVHPDIKLQKLPFYDLLDELIKPTSLASDNSQRFRETCFAFALTPQQVQQISSSMDISGTKCDFTVQVQLRFCLSETSCPQEDHFPPNLCVKVNTKPCSLPGYLPPTKNGVEPKRPSRPINITSLVRLSTTVPNTIVVSWTAEIGRNYSMAVYLVKQLSSTVLLQRLRAKGIRNPDHSRALIKEKLTADPDSEIATTSLRVSLLCPLGKMRLTIPCRALTCSHLQCFDATLYIQMNEKKPTWVCPVCDKKAPYEHLIIDGLFMEILKYCTDCDEIQFKEDGTWAPMRSKKEVQEVSASYNGVDGCLSSTLEHQVASHHQSSNKNKKVEVIDLTIDSSSDEEEEEPSAKRTCPSLSPTSPLNNKGILSLPHQASPVSRTPSLPAVDTSYINTSLIQDYRHPFHMTPMPYDLQGLDFFPFLSGDNQHYNTSLLAAAAAAVSDDQDLLHSSRFFPYTSSQMFLDQLSAGGSTSLPTTNGSSSGSNSSLVSSNSLRESHSHTVTNRSSTDTASIFGIIPDIISLD
notes: Prey clone; extent of the clone unknown; also called AD-IP; AF167160
In turn, B3 came in with a Hits of 1.
